Experimental data as given in publication doi:10.1101/2025.10.03.680336 (bioRxiv, 2025).
Blank lines part the entries; values can stand above or below the binder they belong to.

Key:
SEC-MALS = molecular target: the molecule itself; assay: SEC-MALS
crystal structure = molecular target: the molecule itself; assay: crystal structure
[1] = molecular target: T1, full length SPD-5-GFP (C. elegans), P91349; assay: mass photometry; conditions: remark: other sources report otherwise
T1 chain: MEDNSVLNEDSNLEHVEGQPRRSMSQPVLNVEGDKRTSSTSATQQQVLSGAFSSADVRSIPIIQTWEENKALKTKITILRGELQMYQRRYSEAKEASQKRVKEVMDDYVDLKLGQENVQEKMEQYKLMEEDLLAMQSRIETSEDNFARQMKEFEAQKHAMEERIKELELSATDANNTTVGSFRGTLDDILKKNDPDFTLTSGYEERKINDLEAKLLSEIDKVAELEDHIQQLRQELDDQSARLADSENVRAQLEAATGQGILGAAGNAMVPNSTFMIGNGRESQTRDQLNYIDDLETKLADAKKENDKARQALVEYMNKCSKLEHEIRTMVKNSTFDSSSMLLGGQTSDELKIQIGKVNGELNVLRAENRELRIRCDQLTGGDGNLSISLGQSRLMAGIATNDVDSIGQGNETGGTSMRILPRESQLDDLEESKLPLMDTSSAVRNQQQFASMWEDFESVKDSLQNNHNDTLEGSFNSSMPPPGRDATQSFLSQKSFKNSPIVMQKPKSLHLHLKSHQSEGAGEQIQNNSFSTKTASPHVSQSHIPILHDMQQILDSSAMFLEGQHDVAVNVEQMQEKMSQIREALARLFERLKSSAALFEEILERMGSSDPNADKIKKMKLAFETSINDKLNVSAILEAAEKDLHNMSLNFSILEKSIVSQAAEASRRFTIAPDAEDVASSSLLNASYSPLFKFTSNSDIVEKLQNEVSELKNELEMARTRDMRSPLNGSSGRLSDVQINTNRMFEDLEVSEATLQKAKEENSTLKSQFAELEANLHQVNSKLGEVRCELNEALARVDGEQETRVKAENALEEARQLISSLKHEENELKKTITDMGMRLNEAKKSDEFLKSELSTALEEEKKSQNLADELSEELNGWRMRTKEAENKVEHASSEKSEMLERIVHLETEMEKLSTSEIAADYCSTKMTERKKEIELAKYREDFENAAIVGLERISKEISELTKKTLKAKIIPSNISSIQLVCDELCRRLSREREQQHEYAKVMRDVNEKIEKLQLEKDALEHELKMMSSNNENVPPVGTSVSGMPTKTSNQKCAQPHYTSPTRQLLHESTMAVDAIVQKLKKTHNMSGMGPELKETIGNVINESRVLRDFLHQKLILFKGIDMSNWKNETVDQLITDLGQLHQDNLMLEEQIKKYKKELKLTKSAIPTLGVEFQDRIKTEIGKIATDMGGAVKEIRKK

mass photometry = molecular target: the molecule itself; assay: mass photometry
[2] = molecular target: T2, NG-fusion of PReMΔH1 (Cnn 462-608) (Drosophila melanogaster, UniProt P54623-2 462-608); assay: fluorescence microscopy of networks formed on mixing purified proteins
T2 sequence (looked up): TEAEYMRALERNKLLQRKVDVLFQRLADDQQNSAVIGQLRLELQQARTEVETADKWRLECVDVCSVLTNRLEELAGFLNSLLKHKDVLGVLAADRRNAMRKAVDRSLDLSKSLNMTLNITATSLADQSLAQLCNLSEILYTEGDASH

[3] = molecular target: T3, NG-CDK5RAP2-PReM (CDK5RAP2 residues 535-639) (human, UniProt Q96SN8 535-639); assay: as above
T3 sequence (looked up): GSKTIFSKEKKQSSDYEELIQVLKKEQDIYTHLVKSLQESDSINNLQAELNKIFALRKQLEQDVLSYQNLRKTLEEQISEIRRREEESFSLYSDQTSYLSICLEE

B1: MBP-fusion of PReM domain construct Cnn 490-608 (domain or fragment, Drosophila melanogaster, UniProt P54623-2 490-608, looked up)
chain: DQQNSAVIGQLRLELQQARTEVETADKWRLECVDVCSVLTNRLEELAGFLNSLLKHKDVLGVLAADRRNAMRKAVDRSLDLSKSLNMTLNITATSLADQSLAQLCNLSEILYTEGDASH
- stoichiometry N (SEC-MALS): 2

B2: Cnn 490-579 2A mutant (domain or fragment, Drosophila melanogaster, UniProt P54623-2 490-579, looked up)
chain: DQQNSAVIGQLRLELQQARTEVETADKWRLECVDVCSVLTNRLEELAGFLNSLLKHKDVLGVLAADRRNAMRKAVDRALDLAKSLNMTLN
- binding result (crystal structure): binds

- stoichiometry N [1]: 2
B3: full length SPD-5-GFP, P91349 1-1198 (natural protein)
chain: MEDNSVLNEDSNLEHVEGQPRRSMSQPVLNVEGDKRTSSTSATQQQVLSGAFSSADVRSIPIIQTWEENKALKTKITILRGELQMYQRRYSEAKEASQKRVKEVMDDYVDLKLGQENVQEKMEQYKLMEEDLLAMQSRIETSEDNFARQMKEFEAQKHAMEERIKELELSATDANNTTVGSFRGTLDDILKKNDPDFTLTSGYEERKINDLEAKLLSEIDKVAELEDHIQQLRQELDDQSARLADSENVRAQLEAATGQGILGAAGNAMVPNSTFMIGNGRESQTRDQLNYIDDLETKLADAKKENDKARQALVEYMNKCSKLEHEIRTMVKNSTFDSSSMLLGGQTSDELKIQIGKVNGELNVLRAENRELRIRCDQLTGGDGNLSISLGQSRLMAGIATNDVDSIGQGNETGGTSMRILPRESQLDDLEESKLPLMDTSSAVRNQQQFASMWEDFESVKDSLQNNHNDTLEGSFNSSMPPPGRDATQSFLSQKSFKNSPIVMQKPKSLHLHLKSHQSEGAGEQIQNNSFSTKTASPHVSQSHIPILHDMQQILDSSAMFLEGQHDVAVNVEQMQEKMSQIREALARLFERLKSSAALFEEILERMGSSDPNADKIKKMKLAFETSINDKLNVSAILEAAEKDLHNMSLNFSILEKSIVSQAAEASRRFTIAPDAEDVASSSLLNASYSPLFKFTSNSDIVEKLQNEVSELKNELEMARTRDMRSPLNGSSGRLSDVQINTNRMFEDLEVSEATLQKAKEENSTLKSQFAELEANLHQVNSKLGEVRCELNEALARVDGEQETRVKAENALEEARQLISSLKHEENELKKTITDMGMRLNEAKKSDEFLKSELSTALEEEKKSQNLADELSEELNGWRMRTKEAENKVEHASSEKSEMLERIVHLETEMEKLSTSEIAADYCSTKMTERKKEIELAKYREDFENAAIVGLERISKEISELTKKTLKAKIIPSNISSIQLVCDELCRRLSREREQQHEYAKVMRDVNEKIEKLQLEKDALEHELKMMSSNNENVPPVGTSVSGMPTKTSNQKCAQPHYTSPTRQLLHESTMAVDAIVQKLKKTHNMSGMGPELKETIGNVINESRVLRDFLHQKLILFKGIDMSNWKNETVDQLITDLGQLHQDNLMLEEQIKKYKKELKLTKSAIPTLGVEFQDRIKTEIGKIATDMGGAVKEIRKK

B4: MBP-fusion of PReM domain construct Cnn 462-608 (domain or fragment, Drosophila melanogaster, UniProt P54623-2 462-608, looked up)
chain: TEAEYMRALERNKLLQRKVDVLFQRLADDQQNSAVIGQLRLELQQARTEVETADKWRLECVDVCSVLTNRLEELAGFLNSLLKHKDVLGVLAADRRNAMRKAVDRSLDLSKSLNMTLNITATSLADQSLAQLCNLSEILYTEGDASH
- stoichiometry N (SEC-MALS): 2

B5: full length Cnn-GFP (natural protein, Drosophila melanogaster, UniProt P54623-2 1-1148, looked up)
chain: MDQSKQVLRDYCGDGNGTCASSLKEITLIETVTSFLEENGAAEIDRRVLRKLAEALSKSIDDTSPGALQDVTMENSYASFDVPRPPGGGNSPLPSQGRSVRELEEQMSALRKENFNLKLRIYFLEEGQPGARADSSTESLSKQLIDAKIEIATLRKTVDVKMELLKDAARAISHHEELQRKADIDSQAIIDELQEQIHAYQMAESGGQPVENIAKTRKMLRLESEVQRLEEELVNIEARNVAARNELEFMLAERLESLTACEGKIQELAIKNSELVERLEKETASAESSNANRDLGAQLADKICELQEAQEKLKERERIHEQACRTIQKLMQKLSSQEKEIKKLNQENEQSANKENDCAKTVISPSSSGRSMSDNEASSQEMSTNLRVRYELKINEQEEKIKQLQTEVKKKTANLQNLVNKELWEKNREVERLTKLLANQQKTLPQISEESAGEADLQQSFTEAEYMRALERNKLLQRKVDVLFQRLADDQQNSAVIGQLRLELQQARTEVETADKWRLECVDVCSVLTNRLEELAGFLNSLLKHKDVLGVLAADRRNAMRKAVDRSLDLSKSLNMTLNITATSLADQSLAQLCNLSEILYTEGDASHKTFNSHEELHAATSMAPTVENLKAENKALKKELEKRRSSEGQRKERRSLPLPSQQFDNQSESEAWSEPDRKVSLARIGLDETSNSLAAPEQAISESESEGRTCATRQDRNRNSERIAQLEEQIAQKDERMLNVQCQMVELDNRYKQEQLRCLDITQQLEQLRAINEALTADLHAIGSHEEERMVELQRQLELKNQQIDQLKLAHSTLTADSQITEMELQALQQQMQEIEQLHADSVETLQSQLQKLKLDAVQQLEEHERLHREALERDWVALTTYQEQAQQLLELQRSLDYHQENEKELKQTLVENELATRALKKQLDESTLQASKAVMERTKAYNDKLQLEKRSEELRLQLEALKEEHQKLLQKRSNSSDVSQSGYTSEEVAVPMGPPSGQATTCKQAAAAVLGQRVNTSSPDLGIESDAGRISSVEVSNAQRAMLKTVEMKTEGSASPKAKSEESTSPDSKSNVATGAATVHDCAKVDLENAELRRKLIRTKRAFEDTYEKLRMANKAKAQVEKDIKNQILKTHNVLRNVRSNMENEL
- stoichiometry N (mass photometry): 2

- binding result [2]: binds
- binding result [3]: binds
B6: human CDK5RAP2 CM2 (residues 1812-1893) (domain or fragment, UniProt Q96SN8 1812-1893, looked up)
chain: PLHCEQIGEMKAEVTKLHKKLFEQEKKLQNTMKLLQLSKRQEKVIFDQLVVTHKILRKARGNLELRPGGAHPGTCSPSRPGS
